{"source": "paper PMC4776139", "about": "“Extended string-like binding of the phosphorylated HP1α N-terminal tail to the lysine 9-methylated histone H3 tail” (Scientific Reports, 2016)", "origin": "cited, not measured here", "molecules": {"B1": {"name": "HP1α: mouse heterochromatin protein 1 isoform; chromodomain with N-terminal tail (protein, UniProt Q61686 1-191, looked up)", "Chromobox protein homolog 5": "MGKKTKRTADSSSSEDEEEYVVEKVLDRRMVKGQVEYLLKWKGFSEEHNTWEPEKNLDCPELISEFMKKYKKMKEGENNKPREKSEGNKRKSSFSNSADDIKSKKKREQSNDIARGFERGLEPEKIIGATDSCGDLMFLMKWKDTDEADLVLAKEANVKCPQIVIAFYEERLTWHAYPEDAENKEKESAKS"}}, "tested_on": "H3K9me", "conditions": "effect of N-terminal tail phosphorylation", "excerpt": "In mice there are three HP1 isoforms, HP1α, HP1β and HP1γ with highly conserved CDs that are thought to share a similar structural feature to interact with H3K9me. By contrast, the CDs of these isoforms are connected to a less-conserved N-terminal tail, which is hypothesized to contribute to their isoform-specific function. In HP1α, in particular, there are four successive serine residues in the N-terminal tail that are constitutively phosphorylated in vivo[13]. […] Howeve ..."}
{"molecule": "B1", "values": [{"measurement": "affinity for H3K9me, in words", "value": "its affinity becomes much stronger when the N-terminal tail is phosphorylated"}]}
